These results are taken from article doi:10.1101/2025.08.17.670746, “Post-transcriptional regulation of meiotic transcripts by the RNA binding protein CDM1 is associated with cytoplasmic condensate assemblies” (bioRxiv, 2025).

This series concerns the molecule itself. In words: pull-down; equimolar His6-MBP-CDM1-GFP and TEV-cleaved CDM1-GFP mixed in 20 mM HEPES pH 7.4, 150 mM KCl, 1 mM DTT, room temperature, 2 h; precipitated with anti-His antibody and Protein G beads; blot with anti-GFP.

B1: CALLOSE … MICROSPORES1 (CDM1) fused to G3GFP, made in E. coli (His6-MBP-CDM1-GFP and its TEV-cleaved form CDM1-GFP) (natural protein, Arabidopsis thaliana, UniProt Q9C9F5 1-308, looked up)
chain: MENKIAPFSYSGSSAGNSSSGGVVSSSLYSDQLYKSTRNIMQQRQDMVNREALCYTRLHEASLEAEALRLENTELRSMNLRLKNELNSLIRSSIQNRFDHRSPLRMLSNLSIGGNDADEVENQNRTVNRDDVNDKSPTSVMENEDLNRSSLPKSISVRSNGYSKASQGGGGAAAQSGKPRGTVTKPGTCGQVSTTQKVYVRGGGKKEDQEEEIEVEVYNQGMTKTELCNKWQETGTCPYGDHCQFAHGIKELRPVIRHPRYKTEVCRMVLAGDNCPYGHRCHFRHSLSEQEKLVAAGFKPKSSLKLIT
notes: CDM1 (CALLOSE … MICROSPORE1, C3H15), Arabidopsis thaliana, At1G68200; Self-association test with two differently tagged copies: the bait copy kept His6-MBP (His6-MBP-CDM1-GFP); Both copies carry the C-terminal G3GFP, by which they were detected; also called C3H15; His-MBP-CDM1-G3GFP; source: E. coli BL21-Rosetta, purified (His Mag Sepharose Ni beads, dialysed); not shown: His6, N-terminal, kept; …
With B1, the binding result is “binds”.
